Measured values taken from patent US12331106B2, “Anti-angiopoietin-2 antibodies that induce Tie2 activation” (Institute for Basic Science, priority 2018, dated 2025).
Changes are numbered by the printed parent chain.

B1: 2C8: mouse monoclonal anti-Ang2 antibody; VH SEQ ID NO: 19, VL SEQ ID NO: 21; hybridoma KCLRF-BP-00417 (antibody, V domains shown)
VH: QVQLQQSGPQLVRPGASVKISCKASGYSFTSYWMHWVKQRPGQGLEWIGMIDPSDSETRLNQKFKDKASLTVDKSSSTAYMQLSSPTSGDSAVYYCARRFYYGSDWYFDVWGAGSTVTVSS
VL: DIVMTQSHKFMSTSVGDRVSITCKASQDVGTAVAWYQQKPGQSPKLLIYWASTRHTGVPDRFTGSGSGTDFTLTISNVQSEDLADYFCQQYSSYPLTFGSGTKLEIK
modifications: Heavy Chain Variable Region; Light Chain Variable Region
notes: mouse monoclonal anti-Ang2 antibody; hybridoma KCLRF-BP-00417
B2: 4B9: mouse monoclonal anti-Ang2 antibody; VH SEQ ID NO: 9, VL SEQ ID NO: 11; hybridoma KCLRF-BP-00418 (antibody, V domains shown)
VH: EVQLVESGGGLVKPGGSLKLSCAASGFTFSDYYMYWVRQTPEKRLEWVATISVGGSFTYYPDSVKGRFTISRDNAKNNLYLQMSSLKSEDTAMYYCARDWGLRPWFVYWGQGTLVTVSA
VL: B1 VL with G30S, F71Y, N77S, S80A, D85L, F87Y, Y91H, S92Y, Y94T, L96P
modifications: Heavy Chain Variable Region; Light Chain Variable Region
notes: mouse monoclonal anti-Ang2 antibody; hybridoma KCLRF-BP-00418

Experiments:
[1] = system: downstream signaling of the Tie2 receptor (Akt phosphorylation) in HUVECs; test: Akt phosphorylation in HUVECs by mouse anti-Ang2 antibodies plus hAng2 (immunoblot); format: cell-based, human; conditions: serum-starved HUVECs; antibody combined with hAng2 1 μg/ml; 30 min
Protocol: To investigate whether the mouse anti-Ang2 antibodies induce the downstream signaling of the Tie2 receptor in endothelial cells, HUVECs (LONZA™) were treated with a combination of hAng2 protein and anti-Ang2 antibody, and then the level of Akt phosphorylation, the main downstream signaling protein of Tie2 receptor, was analyzed by immunoblotting. As a negative control group, the full-length hAng2 (R&D® Systems) alone was treated into the cells.
Specifically, HUVECs (1×10^5 cells/ml) were cultured in EGM-2 medium (LONZA™) at 37° C. in a 60 mm culture dish. Cells (90% confluency) were incubated with serum-free EBM-2 medium for 4 hrs for serum starvation. The serum-starved HUVECs were treated with a mixture of anti-Ang2 antibody and hAng2 protein (1 μg/ml, R&D® Systems) and further incubated for 30 min. The cells were washed with cold PBS, treated with lysis buffer, and lysed at 4° C. for 20 min. Then, the cell lysates were prepared by centrifugation at 13000 rpm for 15 min. 5× SDS sample buffer was added to the cell lysate and the cell lysate was boiled at 95° C. for 5 min. Then, the cell lysate was subjected to SDS PAGE and proteins were transferred to a nitrocellulose membrane (GE).
To investigate Akt phosphorylation, the blot was blocked with 5% skim milk-containing TBS-T for 1 hr at room temperature (RT), and incubated with anti-phospho-Akt antibody (S473) at 4° C. for about 8 hrs. The amount of phospho-Akt was visualized by an enhanced chemiluminescence (ECL). Then, the membrane was incubated in a stripping buffer (Thermo) for 15 min, and then reprobed with an anti-Akt antibody to determine the amount of total Akt.

hAng2 = molecular target: T1, hAng2 (Homo sapiens, UniProt O15123); test: OCTET affinity of mouse monoclonal anti-Ang2 antibodies against hAng2; conditions: hAng2 fixed on AR2G biosensor, 1:1 binding model
T1 sequence (O15123 19-496): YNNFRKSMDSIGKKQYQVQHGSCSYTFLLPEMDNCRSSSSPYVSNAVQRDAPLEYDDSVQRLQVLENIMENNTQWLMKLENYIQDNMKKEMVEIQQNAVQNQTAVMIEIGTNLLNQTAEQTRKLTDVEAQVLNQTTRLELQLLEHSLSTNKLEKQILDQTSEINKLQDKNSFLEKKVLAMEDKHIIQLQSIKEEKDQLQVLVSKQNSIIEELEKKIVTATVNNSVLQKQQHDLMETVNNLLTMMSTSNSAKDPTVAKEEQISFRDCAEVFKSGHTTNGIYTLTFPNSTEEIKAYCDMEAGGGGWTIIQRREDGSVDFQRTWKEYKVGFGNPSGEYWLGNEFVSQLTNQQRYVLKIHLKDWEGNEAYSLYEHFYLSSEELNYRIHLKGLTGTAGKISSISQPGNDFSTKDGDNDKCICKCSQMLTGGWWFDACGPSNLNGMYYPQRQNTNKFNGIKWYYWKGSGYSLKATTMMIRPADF
Protocol: The affinity of mouse monoclonal antibody against hAng2 was measured using OCTET® system (ForteBio, real-time, label-free bio-layer interferometry system for determination of affinity, kinetics, and concentration). Specifically, buffer and samples were measured in total 200 μl/well using Black 96-well plates (96 well F-type black plates, Greiner). The biosensor used for affinity measurements was hydrated for 10 min before measurement with AR2G tip (ForteBio OCTET®). After the hydration, hAng2 was diluted in 10 mM sodium acetate, pH 6.0 buffer at a concentration of 10 μg/ml, fixed on AR2G biosensor, and blocked with 1M ethanolamine. The mouse monoclonal anti-Ang2 antibodies were diluted to 50, 25, 12.5, 6.25, 3.125, and 0 nM with 1× kinetic buffer, and subjected to association for 300 seconds and dissociation for 900 seconds. For affinity measurement (KD), the association rate (K-on) and dissociation rate (K-off) were analyzed by binding curve (global) and fitted to 1:1 binding model using OCTET® data analysis v9.0.0.10 program.

| Molecule | Akt phosphorylation at S473 [1] | Koff (hAng2) | Kon (hAng2) |
| --- | --- | --- | --- |
| B1 | strongly induced | 3.54e-06 s⁻¹ | 77800 M⁻¹ s⁻¹ |
| B2 | strongly induced | 5.04e-07 s⁻¹ | 137000 M⁻¹ s⁻¹ |
